Values belong to the binder of their own block, whether it stands above or below them.
Biological target: mixture of three Der p 2 specific recombinant human IgE clones H10, H12, P4E (human) (UniProt P01854)
Experiment: RBL-SX38 IgE displacement, FACS

Chain of mixture of three Der p 2 specific recombinant human IgE clones H10, H12, P4E (human) (P01854 other isoform, or with tags, fused parts or gaps): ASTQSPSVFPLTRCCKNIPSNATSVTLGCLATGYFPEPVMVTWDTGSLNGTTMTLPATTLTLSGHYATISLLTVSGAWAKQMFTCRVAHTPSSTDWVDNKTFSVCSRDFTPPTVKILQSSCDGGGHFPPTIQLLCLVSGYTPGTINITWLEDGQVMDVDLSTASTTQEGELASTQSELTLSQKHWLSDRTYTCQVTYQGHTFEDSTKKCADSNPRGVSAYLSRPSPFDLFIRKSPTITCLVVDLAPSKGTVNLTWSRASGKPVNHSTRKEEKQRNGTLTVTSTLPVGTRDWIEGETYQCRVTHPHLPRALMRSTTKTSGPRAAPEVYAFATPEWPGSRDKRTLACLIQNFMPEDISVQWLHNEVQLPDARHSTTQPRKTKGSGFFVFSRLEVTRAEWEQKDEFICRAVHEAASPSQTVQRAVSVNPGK

B1: NIgG4F2A1(RS) (Fc fusion)
chain 1: DVQLQESGGGLVQAGGSLKLSCAASGGSLSRYDMGWFRQAPGKEREFVARISWSGDTKYYADAVEGRFAISRDNAQNTVYLQMNSLKPEDTAVYYCAVALYGNRGYYDVNTYSYWGQGTRVTVSRSGPPCPPCPAPEFLGGPSVFLFPPKPKDTLMISRTPEVTCVVVDVSQEDPEVQFNWYVDGVEVHNAKTKPREEQFNSTYRVVSVLTVLHQDWLNGKEYKCKVSNKGLPSSIEKTISKAKGQPREPQVYTLPPCQEEMTKNQVSLWCLVKGFYPSDIAVEWESNGQPENNYKTTPPVLDSDGSFFLYSRLTVDKSRWQEGNVFSCSVMHEALHNHYTQKSLSLSLGK
chain 2: EVQLLESGGGLVQPGGSLRLSCAASGFTFGNYDMAWVRQAPGKRPEWVSSIDTGGDITHYADSVKGRFTISRDNAKNTLYLQMNSLRPEDTAVYWCATDEEYALGPNEFDYYGQGTLVTVSSRSGPPCPPCPAPEFLGGPSVFLFPPKPKDTLMISRTPEVTCVVVDVSQEDPEVQFNWYVDGVEVHNAKTKPREEQFNSTYRVVSVLTVLHQDWLNGKEYKCKVSNKGLPSSIEKTISKAKGQPREPQVCTLPPSQEEMTKNQVSLSCAVKGFYPSDIAVEWESNGQPENNYKTTPPVLDSDGSFFLVSRLTVDKSRWQEGNVFSCSVMHEALHNHYTQKSLSLSLGK
EC50: 2 nM
Max effect/effect 1 µM: 88%

B4: CIgG4F1A1(G4S)2 (Fc fusion)
chain 1: GPPCPPCPAPEFLGGPSVFLFPPKPKDTLMISRTPEVTCVVVDVSQEDPEVQFNWYVDGVEVHNAKTKPREEQFNSTYRVVSVLTVLHQDWLNGKEYKCKVSNKGLPSSIEKTISKAKGQPREPQVYTLPPCQEEMTKNQVSLWCLVKGFYPSDIAVEWESNGQPENNYKTTPPVLDSDGSFFLYSRLTVDKSRWQEGNVFSCSVMHEALHNHYTQKSLSLSLGKGGGGSGGGGSDVQLQESGGGLVQAGGSLKLSCAASGGSLSRYDMGWFRQAPGKEREFVARISWSGTTKYYADAVKGRFAISRDNAKNTVYLQMNSLKPEDTAVYYCAAAFYGNRGYYDVNAYTSSGQGTQVTVS
chain 2: GPPCPPCPAPEFLGGPSVFLFPPKPKDTLMISRTPEVTCVVVDVSQEDPEVQFNWYVDGVEVHNAKTKPREEQFNSTYRVVSVLTVLHQDWLNGKEYKCKVSNKGLPSSIEKTISKAKGQPREPQVCTLPPSQEEMTKNQVSLSCAVKGFYPSDIAVEWESNGQPENNYKTTPPVLDSDGSFFLVSRLTVDKSRWQEGNVFSCSVMHEALHNHYTQKSLSLSLGKGGGGSGGGGSEVQLLESGGGLVQPGGSLRLSCAASGFTFGNYDMAWVRQAPGKRPEWVSSIDTGGDITHYADSVKGRFTISRDNAKNTLYLQMNSLRPEDTAVYWCATDEEYALGPNEFDYYGQGTLVTVSS
Max effect/effect 1 µM: 18%

B5: CIgG4F1A1(RS) (Fc fusion)
chain 1: GPPCPPCPAPEFLGGPSVFLFPPKPKDTLMISRTPEVTCVVVDVSQEDPEVQFNWYVDGVEVHNAKTKPREEQFNSTYRVVSVLTVLHQDWLNGKEYKCKVSNKGLPSSIEKTISKAKGQPREPQVYTLPPCQEEMTKNQVSLWCLVKGFYPSDIAVEWESNGQPENNYKTTPPVLDSDGSFFLYSRLTVDKSRWQEGNVFSCSVMHEALHNHYTQKSLSLSLGKRSDVQLQESGGGLVQAGGSLKLSCAASGGSLSRYDMGWFRQAPGKEREFVARISWSGTTKYYADAVKGRFAISRDNAKNTVYLQMNSLKPEDTAVYYCAAAFYGNRGYYDVNAYTSSGQGTQVTVS
chain 2: GPPCPPCPAPEFLGGPSVFLFPPKPKDTLMISRTPEVTCVVVDVSQEDPEVQFNWYVDGVEVHNAKTKPREEQFNSTYRVVSVLTVLHQDWLNGKEYKCKVSNKGLPSSIEKTISKAKGQPREPQVCTLPPSQEEMTKNQVSLSCAVKGFYPSDIAVEWESNGQPENNYKTTPPVLDSDGSFFLVSRLTVDKSRWQEGNVFSCSVMHEALHNHYTQKSLSLSLGKRSEVQLLESGGGLVQPGGSLRLSCAASGFTFGNYDMAWVRQAPGKRPEWVSSIDTGGDITHYADSVKGRFTISRDNAKNTLYLQMNSLRPEDTAVYWCATDEEYALGPNEFDYYGQGTLVTVSS
Max effect/effect 1 µM: 0%

Results, then the binder that gave them:

EC50: 2 nM
Max effect/effect 1 µM: 92%
B2: NIgG4F2A1(G4S)1 (Fc fusion)
chain 1: DVQLQESGGGLVQAGGSLKLSCAASGGSLSRYDMGWFRQAPGKEREFVARISWSGDTKYYADAVEGRFAISRDNAQNTVYLQMNSLKPEDTAVYYCAVALYGNRGYYDVNTYSYWGQGTRVTVSGGGGSGPPCPPCPAPEFLGGPSVFLFPPKPKDTLMISRTPEVTCVVVDVSQEDPEVQFNWYVDGVEVHNAKTKPREEQFNSTYRVVSVLTVLHQDWLNGKEYKCKVSNKGLPSSIEKTISKAKGQPREPQVYTLPPCQEEMTKNQVSLWCLVKGFYPSDIAVEWESNGQPENNYKTTPPVLDSDGSFFLYSRLTVDKSRWQEGNVFSCSVMHEALHNHYTQKSLSLSLGK
chain 2: EVQLLESGGGLVQPGGSLRLSCAASGFTFGNYDMAWVRQAPGKRPEWVSSIDTGGDITHYADSVKGRFTISRDNAKNTLYLQMNSLRPEDTAVYWCATDEEYALGPNEFDYYGQGTLVTVSSGGGGSGPPCPPCPAPEFLGGPSVFLFPPKPKDTLMISRTPEVTCVVVDVSQEDPEVQFNWYVDGVEVHNAKTKPREEQFNSTYRVVSVLTVLHQDWLNGKEYKCKVSNKGLPSSIEKTISKAKGQPREPQVCTLPPSQEEMTKNQVSLSCAVKGFYPSDIAVEWESNGQPENNYKTTPPVLDSDGSFFLVSRLTVDKSRWQEGNVFSCSVMHEALHNHYTQKSLSLSLGK

EC50: 2.1 nM
Max effect/effect 1 µM: 95%
B3: NIgG4F1A1(G4S)2 (Fc fusion)
chain 1: DVQLQESGGGLVQAGGSLKLSCAASGGSLSRYDMGWFRQAPGKEREFVARISWSGTTKYYADAVKGRFAISRDNAKNTVYLQMNSLKPEDTAVYYCAAAFYGNRGYYDVNAYTSSGQGTQVTVSGGGGSGGGGSGPPCPPCPAPEFLGGPSVFLFPPKPKDTLMISRTPEVTCVVVDVSQEDPEVQFNWYVDGVEVHNAKTKPREEQFNSTYRVVSVLTVLHQDWLNGKEYKCKVSNKGLPSSIEKTISKAKGQPREPQVYTLPPCQEEMTKNQVSLWCLVKGFYPSDIAVEWESNGQPENNYKTTPPVLDSDGSFFLYSRLTVDKSRWQEGNVFSCSVMHEALHNHYTQKSLSLSLGK
chain 2: EVQLLESGGGLVQPGGSLRLSCAASGFTFGNYDMAWVRQAPGKRPEWVSSIDTGGDITHYADSVKGRFTISRDNAKNTLYLQMNSLRPEDTAVYWCATDEEYALGPNEFDYYGQGTLVTVSSGGGGSGGGGSGPPCPPCPAPEFLGGPSVFLFPPKPKDTLMISRTPEVTCVVVDVSQEDPEVQFNWYVDGVEVHNAKTKPREEQFNSTYRVVSVLTVLHQDWLNGKEYKCKVSNKGLPSSIEKTISKAKGQPREPQVCTLPPSQEEMTKNQVSLSCAVKGFYPSDIAVEWESNGQPENNYKTTPPVLDSDGSFFLVSRLTVDKSRWQEGNVFSCSVMHEALHNHYTQKSLSLSLGK

Max effect/effect 1 µM: 8%
B6: CIgG4F1A1(G4S)1 (Fc fusion)
chain 1: GPPCPPCPAPEFLGGPSVFLFPPKPKDTLMISRTPEVTCVVVDVSQEDPEVQFNWYVDGVEVHNAKTKPREEQFNSTYRVVSVLTVLHQDWLNGKEYKCKVSNKGLPSSIEKTISKAKGQPREPQVYTLPPCQEEMTKNQVSLWCLVKGFYPSDIAVEWESNGQPENNYKTTPPVLDSDGSFFLYSRLTVDKSRWQEGNVFSCSVMHEALHNHYTQKSLSLSLGKGGGGSDVQLQESGGGLVQAGGSLKLSCAASGGSLSRYDMGWFRQAPGKEREFVARISWSGTTKYYADAVKGRFAISRDNAKNTVYLQMNSLKPEDTAVYYCAAAFYGNRGYYDVNAYTSSGQGTQVTVS
chain 2: GPPCPPCPAPEFLGGPSVFLFPPKPKDTLMISRTPEVTCVVVDVSQEDPEVQFNWYVDGVEVHNAKTKPREEQFNSTYRVVSVLTVLHQDWLNGKEYKCKVSNKGLPSSIEKTISKAKGQPREPQVCTLPPSQEEMTKNQVSLSCAVKGFYPSDIAVEWESNGQPENNYKTTPPVLDSDGSFFLVSRLTVDKSRWQEGNVFSCSVMHEALHNHYTQKSLSLSLGKGGGGSEVQLLESGGGLVQPGGSLRLSCAASGFTFGNYDMAWVRQAPGKRPEWVSSIDTGGDITHYADSVKGRFTISRDNAKNTLYLQMNSLRPEDTAVYWCATDEEYALGPNEFDYYGQGTLVTVSS

Max effect/effect 1 µM: 0%
B7: CIgG4F1A1(G4S)3 (Fc fusion)
chain 1: GPPCPPCPAPEFLGGPSVFLFPPKPKDTLMISRTPEVTCVVVDVSQEDPEVQFNWYVDGVEVHNAKTKPREEQFNSTYRVVSVLTVLHQDWLNGKEYKCKVSNKGLPSSIEKTISKAKGQPREPQVYTLPPCQEEMTKNQVSLWCLVKGFYPSDIAVEWESNGQPENNYKTTPPVLDSDGSFFLYSRLTVDKSRWQEGNVFSCSVMHEALHNHYTQKSLSLSLGKGGGGSGGGGSGGGGSDVQLQESGGGLVQAGGSLKLSCAASGGSLSRYDMGWFRQAPGKEREFVARISWSGTTKYYADAVKGRFAISRDNAKNTVYLQMNSLKPEDTAVYYCAAAFYGNRGYYDVNAYTSSGQGTQVTVS
chain 2: GPPCPPCPAPEFLGGPSVFLFPPKPKDTLMISRTPEVTCVVVDVSQEDPEVQFNWYVDGVEVHNAKTKPREEQFNSTYRVVSVLTVLHQDWLNGKEYKCKVSNKGLPSSIEKTISKAKGQPREPQVCTLPPSQEEMTKNQVSLSCAVKGFYPSDIAVEWESNGQPENNYKTTPPVLDSDGSFFLVSRLTVDKSRWQEGNVFSCSVMHEALHNHYTQKSLSLSLGKGGGGSGGGGSGGGGSEVQLLESGGGLVQPGGSLRLSCAASGFTFGNYDMAWVRQAPGKRPEWVSSIDTGGDITHYADSVKGRFTISRDNAKNTLYLQMNSLRPEDTAVYWCATDEEYALGPNEFDYYGQGTLVTVSS

EC50: 35.5 nM
Max effect/effect 1 µM: 92%
B8: NIgG4F1A1(G4S)3 (Fc fusion)
chain 1: DVQLQESGGGLVQAGGSLKLSCAASGGSLSRYDMGWFRQAPGKEREFVARISWSGTTKYYADAVKGRFAISRDNAKNTVYLQMNSLKPEDTAVYYCAAAFYGNRGYYDVNAYTSSGQGTQVTVSGGGGSGGGGSGGGGSGPPCPPCPAPEFLGGPSVFLFPPKPKDTLMISRTPEVTCVVVDVSQEDPEVQFNWYVDGVEVHNAKTKPREEQFNSTYRVVSVLTVLHQDWLNGKEYKCKVSNKGLPSSIEKTISKAKGQPREPQVYTLPPCQEEMTKNQVSLWCLVKGFYPSDIAVEWESNGQPENNYKTTPPVLDSDGSFFLYSRLTVDKSRWQEGNVFSCSVMHEALHNHYTQKSLSLSLGK
chain 2: EVQLLESGGGLVQPGGSLRLSCAASGFTFGNYDMAWVRQAPGKRPEWVSSIDTGGDITHYADSVKGRFTISRDNAKNTLYLQMNSLRPEDTAVYWCATDEEYALGPNEFDYYGQGTLVTVSSGGGGSGGGGSGGGGSGPPCPPCPAPEFLGGPSVFLFPPKPKDTLMISRTPEVTCVVVDVSQEDPEVQFNWYVDGVEVHNAKTKPREEQFNSTYRVVSVLTVLHQDWLNGKEYKCKVSNKGLPSSIEKTISKAKGQPREPQVCTLPPSQEEMTKNQVSLSCAVKGFYPSDIAVEWESNGQPENNYKTTPPVLDSDGSFFLVSRLTVDKSRWQEGNVFSCSVMHEALHNHYTQKSLSLSLGK
